Assay results taken from PMC5800818 (2018).

Assays:
[1] = target: T1, rhodamine-labeled Mdm2^216–302 (human, UniProt Q00987-11 216-302, rhodamine label (site not stated)); experiment: FP
[2] = target: T1, rhodamine-labeled Mdm2^216–302; experiment: FP; remark: listed apart in the source
[3] = target: T1, rhodamine-labeled Mdm2^216–302; experiment: FP; GPpY peptide preassembled with PTBi
[4] = target: T1, rhodamine-labeled Mdm2^216–302; experiment: FP; remark: listed apart in the source

T1 sequence (Q00987 210-296): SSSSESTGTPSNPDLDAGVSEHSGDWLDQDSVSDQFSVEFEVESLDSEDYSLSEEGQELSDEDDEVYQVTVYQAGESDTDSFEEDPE

| Kd [1] [µM] | Kd [2] [µM] | Kd [4] [µM] | Binder | further results |
| --- | --- | --- | --- | --- |
| 155 |  |  | Numb-PTBo, purified (domain or fragment) SRPHQWQTDEEGVRTGKCSFPVKYLGHVEVDESRGMHICEDAVKRLKATGKKAVKAVLWVSADGLRVVDEKTKDLIVDQTIEKVSFCAPDRNFDRAFSYICRDGTTRRWICHCFMAVKDTGERLSHAVGCAFAACLERKQKREKE |  |
|  | 43.5 |  | PTBi F75-76A (protein) SRPHQWQTDEEGVRTGKCSFPVKYLGHVEVDESRGMHICEDAVKRLKAERKFFKGAAGKTGKKAVKAVLWVSADGLRVVDEKTKDLIVDQTIEKVSFCAPDRNFDRAFSYICRDGTTRRWICHCFMAVKDTGERLSHAVGCAFAACLERKQKREKE |  |
|  |  |  | PTBi in complex with GPpY (complex, phosphotyrosine at position 6 (AYIGPpYL)) chain 1: SRPHQWQTDEEGVRTGKCSFPVKYLGHVEVDESRGMHICEDAVKRLKAERKFFKGFFGKTGKKAVKAVLWVSADGLRVVDEKTKDLIVDQTIEKVSFCAPDRNFDRAFSYICRDGTTRRWICHCFMAVKDTGERLSHAVGCAFAACLERKQKREKE chain 2: AYIGPYL | Kd [3]: 5.8 µM |
|  | 29 |  | PTBi F71-72A (protein) SRPHQWQTDEEGVRTGKCSFPVKYLGHVEVDESRGMHICEDAVKRLKAERKAAKGFFGKTGKKAVKAVLWVSADGLRVVDEKTKDLIVDQTIEKVSFCAPDRNFDRAFSYICRDGTTRRWICHCFMAVKDTGERLSHAVGCAFAACLERKQKREKE |  |
|  | 60.6 |  | PTBi F71-72-75-76A (protein) SRPHQWQTDEEGVRTGKCSFPVKYLGHVEVDESRGMHICEDAVKRLKAERKAAKGAAGKTGKKAVKAVLWVSADGLRVVDEKTKDLIVDQTIEKVSFCAPDRNFDRAFSYICRDGTTRRWICHCFMAVKDTGERLSHAVGCAFAACLERKQKREKE |  |
| 5.5 |  | 6.1 | Numb-PTBi (Numb^20–175), purified (domain or fragment) SRPHQWQTDEEGVRTGKCSFPVKYLGHVEVDESRGMHICEDAVKRLKAERKFFKGFFGKTGKKAVKAVLWVSADGLRVVDEKTKDLIVDQTIEKVSFCAPDRNFDRAFSYICRDGTTRRWICHCFMAVKDTGERLSHAVGCAFAACLERKQKREKE |  |
|  |  | 86 | KRLKAERKFFKGFFGKTGKK (other) [thioredoxin-scaffolded Numb^63–82, His fusion] |  |
|  |  | 5.1 | GMHICEDAVKRLKAERKFFKGFFGKTGKKAVKAVLWVS (other) [thioredoxin-scaffolded Numb^54–91, His fusion] |  |
| 5.6 |  |  | Numb isoform-1 full-length, purified (natural protein) MNKLRQSFRRKKDVYVPEASRPHQWQTDEEGVRTGKCSFPVKYLGHVEVDESRGMHICEDAVKRLKAERKFFKGFFGKTGKKAVKAVLWVSADGLRVVDEKTKDLIVDQTIEKVSFCAPDRNFDRAFSYICRDGTTRRWICHCFMAVKDTGERLSHAVGCAFAACLERKQKREKECGVTATFDASRTTFTREGSFRVTTATEQAEREEIMKQMQDAKKAETDKIVVGSSVAPGNTAPSPSSPTSPTSDATTSLEMNNPHAIPRRHAPIEQLARQGSFRGFPALSQKMSPFKRQLSLRINELPSTMQRKTDFPIKNAVPEVEGEAESISSLCSQITNAFSTPEDPFSSAPMTKPVTVVAPQSPTFQANGTDSAFHVLAKPAHTALAPVAMPVRETNPWAHAPDAANKEIAATCSGTEWGQSSGAASPGLFQAGHRRTPSEADRWLEEVSKSVRAQQPQASAAPLQPVLQPPPPTAISQPASPFQGNAFLTSQPVPVGVVPALQPAFVPAQSYPVANGMPYPAPNVPVVGITPSQMVANVFGTAGHPQAAHPHQSPSLVRQQTFPHYEASSATTSPFFKPPAQHLNGSAAFNGVDDGRLASADRHTEVPTGTCPVDPFEAQWAALENKSKQRTNPSPTNPFSSDLQKTFEIEL |  |
